Patent US20190233528A1 (published 2019)

T1: recombinant biotinylated human CD70 protein (human, UniProt P32970 39-193, biotinylated (site not stated))
T1 construct: also called recombinant biotinylated hCD70 protein
T1 sequence: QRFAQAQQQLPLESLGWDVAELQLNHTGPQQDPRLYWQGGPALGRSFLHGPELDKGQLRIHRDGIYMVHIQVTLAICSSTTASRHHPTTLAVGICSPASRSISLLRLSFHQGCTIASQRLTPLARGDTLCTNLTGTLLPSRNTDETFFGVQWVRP

T2: human CD70 expressed on parental (WT) Jurkat cells (human, UniProt P32970 1-193)
T2 sequence: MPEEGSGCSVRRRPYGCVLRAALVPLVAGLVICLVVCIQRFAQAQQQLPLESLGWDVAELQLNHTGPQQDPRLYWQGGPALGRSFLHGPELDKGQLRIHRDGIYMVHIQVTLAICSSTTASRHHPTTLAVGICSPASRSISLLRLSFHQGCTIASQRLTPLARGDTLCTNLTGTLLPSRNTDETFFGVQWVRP

T3: recombinant human CD70 (AviTag, polyhistidine tag and chicken tenascin trimerization domain fused to the … (chicken; human, UniProt P10039 110-139, limits assumed)
T3 construct: domain: trimerization domain; Expressed in Expi293, purified by IMAC and SEC; Copies 3 is inferred from the trimerization domain; not shown: AviTag; polyhistidine tag
T3 sequence: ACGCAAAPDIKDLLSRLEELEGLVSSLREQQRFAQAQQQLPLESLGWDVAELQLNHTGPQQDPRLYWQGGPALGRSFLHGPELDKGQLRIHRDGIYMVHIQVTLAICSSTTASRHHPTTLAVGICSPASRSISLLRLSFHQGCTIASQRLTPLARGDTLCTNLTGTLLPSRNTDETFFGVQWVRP


Experiments:
[1] = target: T1, recombinant biotinylated human CD70 …; assay: flow cytometry: CAR-transduced Jurkat cells incubated with recombinant biotinylated human CD70, streptavidin-PE; percent of cells binding
Experimental: On Day 5, transduced cells were stained with human anti-CD69 antibody conjugated to PE-Cy7 and acquired on a flow cytometer to obtain percentage of CD69+ population for each CAR. […] Activation ratios (WT activation/KO activation) and protein binding were used to rank CARs.
Table 7: Activation ratio and protein binding of phage CARs were determined in the Jurkat screen. Activation ratio was used for in vitro characterization of CARs. Activation ratio was determined by calculating the ratio of the percentage of CD69 expression on WT Jurkat cells transduced with CD70 CAR (WT) to that on CD70 knockout Jurkat cells transduced with CD70 CAR (KO). A higher activation ratio indicates target-dependent activation. […] Protein binding values indicate the percentage of CD3+ CAR T cells that bind to human CD70 protein.

[2] = target: T2, human CD70 expressed on parental (WT) …; assay: cell-based or functional assay
[3] = target: T3, recombinant human CD70 (AviTag, …); assay: SPR (Biacore 8K, 37 C): CD70 captured via anti-AviTag antibody on C1 chip, scFv-Fc as analyte; 1:1 Langmuir fit
Experimental: The antibody binding kinetics were determined by surface plasmon resonance (Biacore 8K, GE Healthcare Bio-Sciences, Pittsburgh Pa.) at 37° C. in HBS-T+ (0.01 M HEPES pH 7.4, 0.15 M NaCl, 0.05% v/v Tween20, 1 mg/mL BSA). Recombinant human CD70 diluted in HBS-T+ was captured on a C1 chip immobilized with an anti-AviTag™ antibody. Purified anti-CD70 scFv-Fc fusions were serially diluted into HBS-T+, injected at 30 uL/min for 2-4 min, dissociation monitored for 10 min then the surface regenerated with 75 mM phosphoric acid between injections. Buffer cycles were collected for each anti-CD70 scFv-Fc fusion for double-referencing purposes (double-referencing as described in Myszka, D. G. Improving biosensor analysis. J. Mol. Recognit. 12, 279-284 (1999)). Kinetic association rates (kₒₙ) and dissociation rates (koff) were obtained simultaneously by fitting the double-referenced sensorgrams globally to a 1:1 Langmuir with mass transport model using Biacore 8K Evaluation Software (GE Healthcare Bio-Sciences, Pittsburgh Pa.) then used to calculate an equilibrium dissociation constant (KD) from the kinetic rate constants (KD=koff/kₒₙ). The data was fit to a 1:1 steady state affinity model using Biacore 8K Evaluation Software to determine a steady state equilibrium dissociation constant (SS KD) as needed.

Row | Protein binding (%) [1] | Activation ratio (WT/KO) [2] | Kd [3] | koff [3] | kon [3] | t1/2 [3] | Binder
1 | 0.68% | 3.04 | – | – | – | – | P07D03 CD70-specific CAR (other, Chimeric antigen receptor on transduced Jurkat cells; the signal peptide is left out) EVQLVQSGAEVKKPGESLKISCKGSGYRFTSYWIGWVRQMPGKGLEWMGSIYPDDSDTRYSPSFQGQVTISADKSISTAYLQWSSLKASDTAMYYCASSTVDYPGYSYFDYWGQGTLVTVSSGGGGSGGGGSGGGGSGGGGSELQSVLTQPPSASGTPGQRVTISCSGSRSNIGSNYVYWYQQLPGTAPKLLIYRNNQRPSGVPDRFSGSKSGTSASLAISGLRSEDEADYYCASWDGSLSAVVFGTGTKLTVLTTTPAPRPPTPAPTIASQPLSLRPEACRPAAGGAVHTRGLDFACDIYIWAPLAGTCGVLLLSLVITLYCKRGRKKLLYIFKQPFMRPVQTTQEEDGCSCRFPEEEEGGCELRVKFSRSADAPAYQQGQNQLYNELNLGRREEYDVLDKRRGRDPEMGGKPRRKNPQEGLYNELQKDKMAEAYSEIGMKGERRRGKGHDGLYQGLSTATKDTYDALHMQALPPR
2 | 77.9% | 2.81 | – | – | – | – | P02B10 CD70-specific CAR (other, Chimeric antigen receptor on transduced Jurkat cells; the signal peptide is left out) EVQLLESGGGLVQPGGSLRLSCAASGFAFSNYAMSWVRQAPGKGLEWVSAIRGGGGSTYYADSVKGRFTISRDNSKNTLYLQMNSLRAEDTAVYYCARDFISGTWYPDYWGQGTLVTVSSGGGGSGGGGSGGGGSGGGGSELQSVLTQPPSASGTPGQRVTISCSGSSSNIGSNYVYWYQQLPGTAPKLLIYRNNQRPSGVPDRFSGSKSGTSASLAISGLRSEDEADYYCAAWDDSLSGVVFGGGTKLTVLTTTPAPRPPTPAPTIASQPLSLRPEACRPAAGGAVHTRGLDFACDIYIWAPLAGTCGVLLLSLVITLYCKRGRKKLLYIFKQPFMRPVQTTQEEDGCSCRFPEEEEGGCELRVKFSRSADAPAYQQGQNQLYNELNLGRREEYDVLDKRRGRDPEMGGKPRRKNPQEGLYNELQKDKMAEAYSEIGMKGERRRGKGHDGLYQGLSTATKDTYDALHMQALPPR
3 | 35.9% | 3.42 | – | – | – | – | P08F08 CD70-specific CAR (other, Chimeric antigen receptor on transduced Jurkat cells; the signal peptide is left out) EVQLVQSGAEVKKPGESLKISCKGSGYGFTSYWIGWVRQMPGKGLEWMGIIHPDDSDTKYSPSFQGQVTISADKSISTAYLQWSSLKASDTAMYYCASSYLRGLWGGYFDYWGQGTLVTVSSGGGGSGGGGSGGGGSGGGGSELQSVLTQPPSASGTPGQRVTISCSGSSSNIGSNYVNWYQQLPGTAPKLLIYGDYQRPSGVPDRFSGSKSGTSASLAISGLRSEDEADYYCATRDDSLSGSVVFGTGTKLTVLTTTPAPRPPTPAPTIASQPLSLRPEACRPAAGGAVHTRGLDFACDIYIWAPLAGTCGVLLLSLVITLYCKRGRKKLLYIFKQPFMRPVQTTQEEDGCSCRFPEEEEGGCELRVKFSRSADAPAYQQGQNQLYNELNLGRREEYDVLDKRRGRDPEMGGKPRRKNPQEGLYNELQKDKMAEAYSEIGMKGERRRGKGHDGLYQGLSTATKDTYDALHMQALPPR
4 | – | – | 5.7 nM | 0.00155 s⁻¹ | 275000 M⁻¹ s⁻¹ | 7.4 min | P12F02 anti-CD70 scFv-Fc fusion (Fc fusion, scFv-Fc expressed in Expi293; not shown: part of the hinge and Fc from a modified human IgG2) EVQLLESGGGLVQPGGSLRLSCAASGFTFSSYAMSWVRQAPGKGLEWVSTISGTGGTTYYADSVKGRFTISRDNSKNTLYLQMNSLRAEDTAVYYCAKVRAGIDPTASDVWGQGTLVTVSSGGGGSGGGGSGGGGSGGGGSELQSVLTQPPSASGTPGQRVTISCSGSTSNIGRNYVYWYQQLPGTAPKLLIYRTNQRPSGVPDRFSGSKSGTSASLAISGLRSEDEADYYCAAWDDSLSGRVFGTGTKLTVL
5 | 20.7% | 14.4 | – | – | – | – | P08A02 CD70-specific CAR (other, Chimeric antigen receptor on transduced Jurkat cells; the signal peptide is left out) EVQLVQSGAEVKKPGESLKISCKGSGYTFTNYWIAWVRQMPGKGLEWMGIIYPDGSDTRYSPSFQGQVTISADKSISTAYLQWSSLKASDTAMYYCARDITSWYYGEPAFDIWGQGTLVTVSSGGGGSGGGGSGGGGSGGGGSELQSVLTQPPSASGTPGQRVTISCSGSSSNIGSNYVYWYQQLPGTAPKLLIYRNNQRPSGVPDRFSGSKSGTSASLAISGLRSEDEADYYCATWDDSLGSPVFGTGTKLTVLTTTPAPRPPTPAPTIASQPLSLRPEACRPAAGGAVHTRGLDFACDIYIWAPLAGTCGVLLLSLVITLYCKRGRKKLLYIFKQPFMRPVQTTQEEDGCSCRFPEEEEGGCELRVKFSRSADAPAYQQGQNQLYNELNLGRREEYDVLDKRRGRDPEMGGKPRRKNPQEGLYNELQKDKMAEAYSEIGMKGERRRGKGHDGLYQGLSTATKDTYDALHMQALPPR
6 | 57.1% | 3.29 | – | – | – | – | P08E02 CD70-specific CAR (other, Chimeric antigen receptor on transduced Jurkat cells; the signal peptide is left out) EVQLVQSGAEVKKPGESLKISCKGSGYSFTSSWIGWVRQMPGKGLEWMGIIYPGDSDTRYSPSFQGQVTISADKSISTAYLQWSSLKASDTAMYYCAKGLSQAMTGFGFDYWGQGTLVTVSSGGGGSGGGGSGGGGSGGGGSELDIQMTQSPSSLSASVGDRVTITCRASQSISRYLNWYQQKPGKAPKLLIYAASILQTGVPSRFSGSGSGTDFTLTISSLQPEDFATYYCQQSYSTTMWTFGQGTKVEIKTTTPAPRPPTPAPTIASQPLSLRPEACRPAAGGAVHTRGLDFACDIYIWAPLAGTCGVLLLSLVITLYCKRGRKKLLYIFKQPFMRPVQTTQEEDGCSCRFPEEEEGGCELRVKFSRSADAPAYQQGQNQLYNELNLGRREEYDVLDKRRGRDPEMGGKPRRKNPQEGLYNELQKDKMAEAYSEIGMKGERRRGKGHDGLYQGLSTATKDTYDALHMQALPPR
7 | 5.74% | 4.34 | – | – | – | – | P12B09 CD70-specific CAR (other, Chimeric antigen receptor on transduced Jurkat cells; the signal peptide is left out) EVQLLESGGGLVQPGGSLRLSCAASGFTFSQYSMSWVRQAPGKGLEWVSAISGGGVSTYYADSVKGRFTISRDNSKNTLYLQMNSLRAEDTAVYYCASDISDSGGSHWYFDYWGQGTLVTVSSGGGGSGGGGSGGGGSGGGGSELDIQMTQSPSSLSASVGDRVTITCRASQYIGRYLNWYQQKRGKAPKLLIHGATSLASGVPSRFSGSGSGTDFTLTISSLQPEDFATYYCQQSYSTTSPTFGQGTKVEIKTTTPAPRPPTPAPTIASQPLSLRPEACRPAAGGAVHTRGLDFACDIYIWAPLAGTCGVLLLSLVITLYCKRGRKKLLYIFKQPFMRPVQTTQEEDGCSCRFPEEEEGGCELRVKFSRSADAPAYQQGQNQLYNELNLGRREEYDVLDKRRGRDPEMGGKPRRKNPQEGLYNELQKDKMAEAYSEIGMKGERRRGKGHDGLYQGLSTATKDTYDALHMQALPPR
8 | – | – | 205 nM | 0.02 s⁻¹ | 97700 M⁻¹ s⁻¹ | 0.6 min | P13F04 anti-CD70 scFv-Fc fusion (Fc fusion, scFv-Fc expressed in Expi293; not shown: part of the hinge and Fc from a modified human IgG2) QVQLVQSGAEVKKPGSSVKVSCKASGGTFSSYAISWVRQAPGQGLEWMGEIIPIFGTASYAQKFQGRVTITADESTSTAYMELSSLRSEDTAVYYCARAGWDDSWFDYWGQGTLVTVSSGGGGSGGGGSGGGGSGGGGSELQSVLTQPPSASGTPGQRVTISCSGSNSNIGTNYVSWYQQLPGTAPKLLIYRSSRRPSGVPDRFSGSKSGTSASLAISGLRSEDEADYYCAAWDGSLSGHWVFGTGTKLTVL
9 | 77.8% | 2.11 | – | – | – | – | P08G02 CD70-specific CAR (other, Chimeric antigen receptor on transduced Jurkat cells; the signal peptide is left out) EVQLVQSGAEVKKPGESLKISCKGSGYTFPSSWIGWVRQMPGKGLEWMGIIYPDTSHTRYSPSFQGQVTISADKSISTAYLQWSSLKASDTAMYYCARASYFDRGTGYSSWWMDVWGQGTLVTVSSGGGGSGGGGSGGGGSGGGGSELDIQMTQSPSSLSASVGDRVTITCRASQSIYDYLHWYQQKPGKAPKLLIYDASNLQSGVPSRFSGSGSGTDFTLTISSLQPEDFATYYCQQSYTTPLFTFGQGTKVEIKTTTPAPRPPTPAPTIASQPLSLRPEACRPAAGGAVHTRGLDFACDIYIWAPLAGTCGVLLLSLVITLYCKRGRKKLLYIFKQPFMRPVQTTQEEDGCSCRFPEEEEGGCELRVKFSRSADAPAYQQGQNQLYNELNLGRREEYDVLDKRRGRDPEMGGKPRRKNPQEGLYNELQKDKMAEAYSEIGMKGERRRGKGHDGLYQGLSTATKDTYDALHMQALPPR
